Reference: paper PMC7734321

What was measured:
Assay in all cases: MST
Conditions in all cases: N6 of strand 1 = tetrahydrofuran (F, abasic site analog), opposite G; MST: 50 mM Tris-HCl pH 7.5, 50 mM KCl, 1 mM EDTA, 1 mM DTT, 7% glycerol, 25 C, 10 min, 0.5 uM DNA; authors call Kd values estimates only
[1] = target: T1, Nei (endonuclease VIII) (Escherichia coli) (UniProt P50465)
T1 sequence: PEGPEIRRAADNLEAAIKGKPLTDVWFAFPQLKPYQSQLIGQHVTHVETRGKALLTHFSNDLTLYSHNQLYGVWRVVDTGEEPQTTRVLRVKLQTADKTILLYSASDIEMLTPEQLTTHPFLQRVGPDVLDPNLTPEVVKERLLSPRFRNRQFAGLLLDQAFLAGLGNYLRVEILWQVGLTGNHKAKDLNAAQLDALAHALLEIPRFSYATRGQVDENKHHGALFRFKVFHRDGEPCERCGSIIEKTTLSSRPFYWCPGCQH

[2] = target: T2, NTH1 (endonuclease III) (Homo sapiens) (UniProt P78549)
T2 sequence: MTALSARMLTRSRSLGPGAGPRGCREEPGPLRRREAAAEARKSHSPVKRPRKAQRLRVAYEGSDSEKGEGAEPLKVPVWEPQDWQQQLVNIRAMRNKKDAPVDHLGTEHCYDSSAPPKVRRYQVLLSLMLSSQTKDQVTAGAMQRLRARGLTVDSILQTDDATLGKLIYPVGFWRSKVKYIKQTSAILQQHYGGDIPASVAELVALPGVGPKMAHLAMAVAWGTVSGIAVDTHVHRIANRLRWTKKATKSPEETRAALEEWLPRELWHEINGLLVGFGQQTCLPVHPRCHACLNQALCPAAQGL

[3] = target: OGG1 (8-oxoguanine-DNA glycosylase) (Homo sapiens) (UniProt O15527)
Sequence of OGG1 (8-oxoguanine-DNA glycosylase) (Homo sapiens) (O15527 whole entry): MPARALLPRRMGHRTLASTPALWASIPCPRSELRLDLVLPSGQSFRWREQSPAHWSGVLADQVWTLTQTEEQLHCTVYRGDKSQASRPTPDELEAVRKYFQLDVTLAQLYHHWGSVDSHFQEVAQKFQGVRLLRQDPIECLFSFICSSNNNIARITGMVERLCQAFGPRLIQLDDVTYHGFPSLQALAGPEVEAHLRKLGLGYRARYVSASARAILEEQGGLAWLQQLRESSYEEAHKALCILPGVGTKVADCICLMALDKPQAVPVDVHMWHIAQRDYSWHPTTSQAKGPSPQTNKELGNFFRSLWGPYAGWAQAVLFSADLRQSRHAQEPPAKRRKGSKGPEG

[4] = target: NEIL1 (endonuclease VIII-like 1) (Homo sapiens) (UniProt Q96FI4)
Sequence of NEIL1 (endonuclease VIII-like 1) (Homo sapiens) (Q96FI4 2-390): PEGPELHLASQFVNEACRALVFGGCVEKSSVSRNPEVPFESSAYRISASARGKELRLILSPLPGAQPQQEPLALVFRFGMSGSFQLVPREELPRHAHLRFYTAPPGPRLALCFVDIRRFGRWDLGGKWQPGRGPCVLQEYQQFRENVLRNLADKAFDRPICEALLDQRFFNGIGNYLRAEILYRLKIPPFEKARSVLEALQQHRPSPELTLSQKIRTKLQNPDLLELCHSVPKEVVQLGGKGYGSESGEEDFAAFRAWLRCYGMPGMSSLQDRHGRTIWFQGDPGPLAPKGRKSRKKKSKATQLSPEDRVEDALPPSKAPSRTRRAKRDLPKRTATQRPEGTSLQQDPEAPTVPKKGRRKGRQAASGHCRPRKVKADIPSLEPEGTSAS

[5] = target: T3, Fpg (formamidopyrimidine-DNA glycosylase) (Escherichia coli) (UniProt P05523)
T3 sequence: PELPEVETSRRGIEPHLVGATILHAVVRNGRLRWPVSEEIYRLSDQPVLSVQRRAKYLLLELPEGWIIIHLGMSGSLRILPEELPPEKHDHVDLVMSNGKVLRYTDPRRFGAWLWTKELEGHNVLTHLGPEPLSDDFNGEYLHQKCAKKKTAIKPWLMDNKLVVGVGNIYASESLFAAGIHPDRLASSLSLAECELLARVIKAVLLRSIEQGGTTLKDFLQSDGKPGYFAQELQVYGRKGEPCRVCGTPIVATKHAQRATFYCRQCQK

Q: Which results are given for “GCTCANGTACAGAGCTG / CAGCTCTGTACGTGAGC [F/G]”?
A: Kd [1]: 500 nM; Kd [2]: 300 nM; Kd [3]: 2800 nM; Kd [4]: 4400 nM; Kd [5]: 1900 nM
